The values below come from US20220306986A1, “NON-INVASIVE METHODS FOR SELECTIVELY ENRICHING PLURIPOTENT CELLS” (MEMORIAL SLOAN-KETTERING CANCER CENTER, priority 2019, published 2022).

Holding throughout (type): cell-based, mouse
In assay [1] the test system is ESCs. Description: Colony formation assay (alkaline phosphatase staining) after pulse treatment. The conditions noted are these: during transient glutamine withdrawal and in the presence of exogenous glutamine; FIG. 7H, 7I. Here is the method: For transient glutamine withdrawal (“pulse”) experiments, cells were initially plated in standard S/L medium as described above. The following day, cells were washed with PBS and then changed to experimental medium containing a 1:1 mix of glutamine-free DMEM and glutamine-free Neurobasal medium including 10% dialyzed FBS, 2-mercaptoethanol, LIF, and containing (“Ctrl”) or lacking (“Pulse”) L-glutamine as indicated. 24 hours later, cells were washed with PBS and then returned to glutamine-replete medium (“Recover”). 24 hours later, cells were subjected to either image analysis, flow cytometry, or plated for colony formation assays as indicated. For glutamine pulse experiments in human ESCs, cells were initially plated at a density of 300,000 cells/well in a tissue-culture treated polystyrene 12-well plate coated with vitronectin (Thermo Fisher Scientific, A14700) in E8 medium (Thermo Fisher Scientific, A1517001) containing 10 uM ROCK inhibitor Y-27632 (Selleck Chemicals S1049). 24 hrs after plating, medium was changed to modified E8 medium containing: DMEM high glucose without glutamine (Thermo Fisher 11960044), 10.7 mg/L Transferrin (Sigma T0665), 64 mg/L L-Ascorbic Acid (Sigma A890), 14 ug/L Sodium Selenite (Sigma S5261), 543 mg/L Sodium Bicarbonate (Research Products International 144558), 19.4 mg/L insulin (Sigma 19278), 100 ug/L bFGF (EMD Millipore GF003AF), 2 ug/L TGFβ1 (Peprotech 10021), and 2 mM L-glutamine. After 24 hrs of culture in modified E8 medium, medium was changed to modified E8 medium containing 2 mM or 0 mM L-glutamine for 24 hrs. All cells were then changed to modified E8 medium containing 2 mM L-glutamine and cultured for 24 hrs before harvest for analysis. […] For ESC colony formation assays, colonies were scored manually in a blinded fashion. For reprogramming experiments, alkaline-phosphatase colonies were scored automatically using ImageJ (NIH). Briefly, images of each well were binarized using the Default function and particles greater than 8 pixels with a circularity of 0.7-1.0 were counted.

Assay [2] relates to Stat3 target gene Tfcp2l1 and key transcription factors associated with naïve pluripotency. Description: qRT-PCR of STAT3-target genes and other key pluripotency genes. To be noted: ESCs expressing GCSF-activated LIF receptor; FIG. 5B. Here is the method:
RNA was isolated from six-well plates using Trizol (Invitrogen) according to manufacturer instructions. 200 ng RNA was used for cDNA synthesis using iScript (BioRad). Quantitative real-time PCR analysis was performed in technical triplicate using QuantStudio 7 Flex (Applied Biosystems) with Power SYBR Green (Life Technologies). All data were generated using cDNA from triplicate wells for each condition. Actin was used as an endogenous control for all experiments. The following primers were used: […]
On the technique in general: Real-time PCR tracks product formation cycle by cycle.

Assay [3] concerns JAK/STAT3 signaling. As to the kind of experiment: Immunoblot of phospho-STAT3 and total STAT3. The conditions noted are these: ESCs expressing chimeric GCSF-responsive LIF receptor; FIG. 5A. Here is the method:
Protein lysates were extracted in 1× radioimmunoprecipitation assay buffer (Cell Signaling Technology), separated by SDS—polyacrylamide gel electrophoresis and transferred to nitrocellulose membranes (Bio-Rad). Membranes were blocked in 3% milk in Tris-buffered saline with 0.1% Tween20 (TBST) and incubated at 4° C. with primary antibodies overnight. After TBST washes the next day, membranes were incubated with horseradish peroxidase-conjugated secondary antibodies for 2 h, incubated with enhanced chemiluminescence (Thermo Fisher Scientific) and imaged with an SRX-101A X-ray Film Processor (Konica Minolta). The antibodies used (at 1:1,000 unless otherwise stated) were: Nanog (catalogue no. AF2729; R&D Systems); KLF4 (catalogue no. ab129473; Abcam), phospho-Stat3 (catalogue no. 9138; Cell Signaling Technology); Stat3 (124146, catalogue no. 9139; Cell Signaling Technology), and α-Tubulin (1:10,000, catalogue no. 79026; Sigma-Aldrich).
For orientation: A western blot detects proteins with antibodies after separation by electrophoresis.

The test system of assay [4] is ESCs expressing the G-CSF-activated LIF receptor transgene. As to the kind of experiment: GC-MS isotope tracing of [U-13C]glucose or [U-13C]glutamine. Here is the method: Steady state TCA cycle metabolite measurements. Cells were seeded in standard S/L medium in 6-well plates. 24 hours later, cells were washed with PBS and changed into experimental medium containing a 1:1 mix of glutamine-free DMEM and glutamine-free Neurobasal medium including 10% dialyzed FBS, 2-mercaptoethanol, LIF, and 2 mM L-glutamine. The next day, cells were washed with PBS and subjected to the same experimental medium either with or without 2 mM glutamine. 8 hours later, metabolites were extracted with 1 mL ice-cold 80% methanol containing 2 μM deuterated 2-hydroxyglutarate (D-2-hydroxyglutaric-2,3,3,4,4-d5 acid, d5-2HG) as an internal standard. After overnight incubation at −80° C., lysates were harvested and centrifuged at 21,000 g for 20 minutes to remove protein. Extracts were dried in an evaporator (Genevac EZ-2 Elite) and resuspended by incubating at 30° C. for 2 hours in 50 μL of 40 mg/mL methoxyamine hydrochloride in pyridine. Metabolites were further derivatized by addition of 80 μL of MSTFA+1% TCMS (Thermo Scientific) and 70 μl ethyl acetate (Sigma) and then incubated at 37° C. for 30 minutes. Samples were analyzed using an Agilent 7890A GC coupled to Agilent 5977C mass selective detector. The GC was operated in splitless mode with constant helium gas flow at 1 mL/min. 1 μl of derivatized metabolites was injected onto an HP-5MS column and the GC oven temperature ramped from 60° C. to 290° C. over 25 minutes. Peaks representing compounds of interest were extracted and integrated using MassHunter software (Agilent Technologies) and then normalized to both the internal standard (d5-2HG) peak area and protein content of duplicate samples as determined by BCA protein assay (Thermo Scientific). Ions used for quantification of metabolite levels are as follows: d5-2HG m/z 354; αKG, m/z 304; aspartate, m/z 334; citrate, m/z 465; fumarate, m/z 245; glutamate, m/z 363; malate, m/z 335 and succinate, m/z 247. All peaks were manually inspected and verified relative to known spectra for each metabolite.
Isotope tracing studies. For isotope tracing studies, cells were seeded in standard S/L medium in 6-well plates. 24 hours later, cells were washed with PBS and changed into experimental medium containing a 1:1 mix of glutamine-free DMEM and glutamine-free Neurobasal medium including 10% dialyzed FBS, 2-mercaptoethanol, LIF, and 2 mM L-glutamine. […] Enrichment of ^13C was assessed by quantifying the abundance of the following ions: aKG, m/z 304-318; aspartate, m/z 334-346; citrate, m/z 465-482; fumarate, m/z 245-254; glutamate, m/z 363-377 and malate, m/z 335-347. […]

In the case of `CCOC(=O)CCNc1cc(N2CCc3ccccc3CC2)nc(-c2ccccn2)n1` [GSK-J4], the “ESC self-renewal (Nanog-GFP, colony formation)” value in assay [1] is “impaired ESC self-renewal”.

B1: GCSF: granulocyte colony-stimulating factor, activates the chimeric LIF receptor transgene (protein, UniProt P09919 31-207, looked up)
Granulocyte …: TPLGPASSLPQSFLLKCLEQVRKIQGDGAALQEKLVSECATYKLCHPEELVLLGHSLGIPWAPLSSCPSQALQLAGCLSQLHSGLFLYQGLLQALEGISPELGPTLDTLQLDVADFATTIWQQMEELGMAPALQPTQGAMPAFASAFQRRAGGVLVASHLQSFLEVSYRVLRHLAQP
As for B1, the “expression of Tfcp2l1 and naïve pluripotency transcription factors” value in assay [2] is reported as “enhancing expression”. The “JAK/STAT3 signaling (phospho-STAT3)” value in assay [3] is “elevated and sustained JAK/STAT3 signaling”. Also, the “intracellular pools of glutamate when deprived of exogenous glutamine” value in assay [4] ([U-13C]glucose, 4 h glutamine withdrawal, FIG. 5C) was “able to use glucose and other anaplerotic substrates to maintain intracellular pools of glutamate”. In addition, the “fraction of TCA cycle metabolites derived from oxidative decarboxylation of glucose-derived pyruvate (m+2 isotopologues)” value in assay [4] ([U-13C]glucose, FIG. 1B) is on record as “increased”. The “fraction of metabolites derived from glutamine catabolism” value in assay [4] ([U-13C]glutamine, FIG. 1D) is on record as “decreased”. Further, in assay [4] ([U-13C]glutamine, control ESCs more than 80%, FIG. 1D), the “fraction of glutamate derived from glutamine” value is listed as 60%.
